Test [1] concerns the target TfR2 (transferrin receptor 2) (UniProt Q9UP52). In words: A450 plate assay on TfR2 (method not described in the text).
In test [2] the target is hTfR (human transferrin receptor, source and construct not stated) (human) (UniProt P02786). Kind of test: ELISA; ratio of the Kd on HFE-captured hTfR to the Kd on directly coated hTfR. (In general: An ELISA detects its analyte on a solid surface through an enzyme-linked reagent.)
Test [3] shares this target. Kind of test: ELISA, biotinylated antibody on hTfR captured by plate-coated human holo-transferrin (Tf+TfR); fit: specific binding with Hill slope.
For test [4] the target is unchanged. In words: ELISA, biotinylated antibody on hTfR captured by plate-coated HFE (HFE+TfR); fit: specific binding with Hill slope.
Test [5] shares this target. In words: ELISA; ratio of the Kd on transferrin-captured hTfR to the Kd on directly coated hTfR.

pKd: −log10 of the molar value.

hTfR (human transferrin receptor, source and construct not stated) (human), sequence (P02786 89-760 limits assumed): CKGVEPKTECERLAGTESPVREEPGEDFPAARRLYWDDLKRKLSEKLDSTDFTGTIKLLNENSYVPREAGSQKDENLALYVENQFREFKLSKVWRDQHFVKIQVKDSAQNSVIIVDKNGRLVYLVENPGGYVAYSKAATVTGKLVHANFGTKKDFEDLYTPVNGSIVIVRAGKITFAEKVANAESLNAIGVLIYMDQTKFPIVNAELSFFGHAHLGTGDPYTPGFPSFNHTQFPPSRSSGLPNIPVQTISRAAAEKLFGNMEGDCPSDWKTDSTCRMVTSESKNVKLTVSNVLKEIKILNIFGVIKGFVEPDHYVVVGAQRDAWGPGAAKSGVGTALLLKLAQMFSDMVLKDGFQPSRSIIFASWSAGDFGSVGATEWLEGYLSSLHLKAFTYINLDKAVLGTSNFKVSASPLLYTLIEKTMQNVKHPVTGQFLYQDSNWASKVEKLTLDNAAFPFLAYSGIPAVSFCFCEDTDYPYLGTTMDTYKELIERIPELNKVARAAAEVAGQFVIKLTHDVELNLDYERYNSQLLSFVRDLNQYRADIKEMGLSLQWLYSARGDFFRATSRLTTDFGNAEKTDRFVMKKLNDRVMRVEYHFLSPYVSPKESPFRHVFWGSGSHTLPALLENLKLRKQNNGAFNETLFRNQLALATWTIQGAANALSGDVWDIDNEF
TfR2 (transferrin receptor 2), sequence (Q9UP52 105-801 limits assumed): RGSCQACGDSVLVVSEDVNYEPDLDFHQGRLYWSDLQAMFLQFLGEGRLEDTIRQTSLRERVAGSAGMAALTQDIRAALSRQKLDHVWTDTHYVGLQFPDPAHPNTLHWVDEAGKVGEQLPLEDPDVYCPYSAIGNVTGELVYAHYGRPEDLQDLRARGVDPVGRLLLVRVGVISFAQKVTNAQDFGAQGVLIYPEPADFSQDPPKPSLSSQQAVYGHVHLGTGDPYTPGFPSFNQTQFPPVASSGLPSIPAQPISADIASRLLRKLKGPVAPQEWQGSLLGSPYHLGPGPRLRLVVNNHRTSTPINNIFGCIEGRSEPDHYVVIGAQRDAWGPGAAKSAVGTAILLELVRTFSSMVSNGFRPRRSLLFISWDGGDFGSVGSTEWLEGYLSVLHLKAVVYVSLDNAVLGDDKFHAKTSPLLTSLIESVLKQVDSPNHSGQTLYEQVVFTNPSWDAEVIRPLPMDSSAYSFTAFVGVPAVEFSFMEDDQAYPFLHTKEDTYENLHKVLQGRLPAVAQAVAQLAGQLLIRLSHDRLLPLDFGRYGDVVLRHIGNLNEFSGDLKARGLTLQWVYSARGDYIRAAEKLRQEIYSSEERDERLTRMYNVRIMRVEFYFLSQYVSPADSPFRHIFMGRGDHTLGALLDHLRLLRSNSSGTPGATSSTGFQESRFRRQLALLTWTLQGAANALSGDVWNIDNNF

A word on the EC50 (read off the curve): it is the concentration needed to bring the measured effect to its halfway point. Low readings indicate a more potent agent, high ones a less potent agent. Turning to TfR2 Ab B-6 (antibody), the 50% effective concentration (EC50 (read off the curve)) in test [1] was 0.3 nM.
What is called pKd is −log10 of the Kd, conventionally taken in molar units. Higher therefore signals a small Kd. As for blocking AF2474 (antibody), the Kd(HFE+TfR)/Kd(TfR) in test [2] stood at 688. In test [3], the Bmax amounted to 4.26 A450, the negative-log Kd (pKd) was 8.66 and the h worked out at 1.12. In test [4], this substance showed a Bmax of 5.7 A450, a pKd of 7.54 and a h of 0.8. Besides, the Kd(Tf+TfR)/Kd(TfR) in test [5] was found to be 51.8.

Values taken from patent US20200325237A1.
